target: T1, CD3 epsilon homodimer protein (UniProt P07766 23-126); experiment: SPR Biacore T200, CD3e homodimer on chip, antibody analyte;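 also: CD3 epsilon homodimer amine-coupled on CM4 sensor chip, antibodies injected as analyte at 25 °C in HBS-EP+, ratio ≥0.8 taken as binding retained versus unaltered parent antibody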
T1 construct: Construct of the homodimer is not described; also called CD3 (CD3 epsilon)
T1 sequence (P07766 23-126): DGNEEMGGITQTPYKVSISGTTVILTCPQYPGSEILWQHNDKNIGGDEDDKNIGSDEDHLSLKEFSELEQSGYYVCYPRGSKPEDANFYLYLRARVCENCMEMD

Binder | ratio of amounts bound (altered form/GLS3000)
GLS3000 L33E one-arm antibody (antibody, human IgG1, kappa, L234A L235A, N297A, name in Kabat numbering) light: DIVMTQSPLSLPVTPGEPASISCRSSQSLVHSNRNTYEHWYQQKPGQAPRLLIYKVSNRFSGVPDRFSGSGSGTDFTLKISRVEAEDVGVYYCGQGTQVPYTFGQGTKLEIKRTVAAPSVFIFPPSDEQLKSGTASVVCLLNNFYPREAKVQWKVDNALQSGNSQESVTEQDSKDSTYSLSSTLTLSKADYEKHKVYACEVTHQGLSSPVTKSFNRGEC heavy: QVQLVESGGGVVQPGRSLRLSCAASGFTFSNAWMHWVRQAPGKGLEWVAQIKAKSNNYATYYAESVKGRFTISRDDSKNSLYLQMNSLKTEDTAVYYCRYVHYGAYYGVDAWGQGTTVTVSSASTKGPSVFPLAPSSKSTSGGTAALGCLVKDYFPEPVTVSWNSGALTSGVHTFPAVLQSSGLYSLSSVVTVPSSSLGTQTYICNVNHKPSNTKVDKKVEPKSCDKTHTCPPCPAPEAAGGPSVFLFPPKPKDTLMISRTPEVTCVVVDVSHEDPEVKFNWYVDGVEVHNAKTKPREEQYASTYRVVSVLTVLHQDWLNGKEYKCKVSNKALPAPIEKTISKAKGQPREPQVYTLPPSRCELTKNQVSLSCAVKGFYPSDIAVEWESNGQPENNYKTTPPVLDSDGSFFLVSKLTVDKSRWQQGNVFSCSVMHEALHNHYTQKSLSLSPDYKDDDDK EPKSSDKTHTCPPCPAPELLGGPSVFLFPPKPKDTLMISRTPEVTCVVVDVSHEDPEVKFNWYVDGVEVHNAKTKPREEQYNSTYRVVSVLTVLHQDWLNGKEYKCKVSNKALPAPIEKTISKAKGQPREPQVCTLPPSRDELTKNQVSLWCLVKGFYPSDIAVEWESNGQPENNYKTTPPVLDSDGSFFLYSKLTVDKSRWQQGNVFSCSVMHEALHNRYTQKSLSLSP | 0.72
GLS3000 L33M one-arm antibody (antibody, human IgG1, kappa, L234A L235A, N297A, name in Kabat numbering) light: DIVMTQSPLSLPVTPGEPASISCRSSQSLVHSNRNTYMHWYQQKPGQAPRLLIYKVSNRFSGVPDRFSGSGSGTDFTLKISRVEAEDVGVYYCGQGTQVPYTFGQGTKLEIKRTVAAPSVFIFPPSDEQLKSGTASVVCLLNNFYPREAKVQWKVDNALQSGNSQESVTEQDSKDSTYSLSSTLTLSKADYEKHKVYACEVTHQGLSSPVTKSFNRGEC heavy: QVQLVESGGGVVQPGRSLRLSCAASGFTFSNAWMHWVRQAPGKGLEWVAQIKAKSNNYATYYAESVKGRFTISRDDSKNSLYLQMNSLKTEDTAVYYCRYVHYGAYYGVDAWGQGTTVTVSSASTKGPSVFPLAPSSKSTSGGTAALGCLVKDYFPEPVTVSWNSGALTSGVHTFPAVLQSSGLYSLSSVVTVPSSSLGTQTYICNVNHKPSNTKVDKKVEPKSCDKTHTCPPCPAPEAAGGPSVFLFPPKPKDTLMISRTPEVTCVVVDVSHEDPEVKFNWYVDGVEVHNAKTKPREEQYASTYRVVSVLTVLHQDWLNGKEYKCKVSNKALPAPIEKTISKAKGQPREPQVYTLPPSRCELTKNQVSLSCAVKGFYPSDIAVEWESNGQPENNYKTTPPVLDSDGSFFLVSKLTVDKSRWQQGNVFSCSVMHEALHNHYTQKSLSLSPDYKDDDDK EPKSSDKTHTCPPCPAPELLGGPSVFLFPPKPKDTLMISRTPEVTCVVVDVSHEDPEVKFNWYVDGVEVHNAKTKPREEQYNSTYRVVSVLTVLHQDWLNGKEYKCKVSNKALPAPIEKTISKAKGQPREPQVCTLPPSRDELTKNQVSLWCLVKGFYPSDIAVEWESNGQPENNYKTTPPVLDSDGSFFLYSKLTVDKSRWQQGNVFSCSVMHEALHNRYTQKSLSLSP | 0.93
GLS3000 L33I one-arm antibody (antibody, human IgG1, kappa, L234A L235A, N297A, name in Kabat numbering) light: DIVMTQSPLSLPVTPGEPASISCRSSQSLVHSNRNTYIHWYQQKPGQAPRLLIYKVSNRFSGVPDRFSGSGSGTDFTLKISRVEAEDVGVYYCGQGTQVPYTFGQGTKLEIKRTVAAPSVFIFPPSDEQLKSGTASVVCLLNNFYPREAKVQWKVDNALQSGNSQESVTEQDSKDSTYSLSSTLTLSKADYEKHKVYACEVTHQGLSSPVTKSFNRGEC heavy: QVQLVESGGGVVQPGRSLRLSCAASGFTFSNAWMHWVRQAPGKGLEWVAQIKAKSNNYATYYAESVKGRFTISRDDSKNSLYLQMNSLKTEDTAVYYCRYVHYGAYYGVDAWGQGTTVTVSSASTKGPSVFPLAPSSKSTSGGTAALGCLVKDYFPEPVTVSWNSGALTSGVHTFPAVLQSSGLYSLSSVVTVPSSSLGTQTYICNVNHKPSNTKVDKKVEPKSCDKTHTCPPCPAPEAAGGPSVFLFPPKPKDTLMISRTPEVTCVVVDVSHEDPEVKFNWYVDGVEVHNAKTKPREEQYASTYRVVSVLTVLHQDWLNGKEYKCKVSNKALPAPIEKTISKAKGQPREPQVYTLPPSRCELTKNQVSLSCAVKGFYPSDIAVEWESNGQPENNYKTTPPVLDSDGSFFLVSKLTVDKSRWQQGNVFSCSVMHEALHNHYTQKSLSLSPDYKDDDDK EPKSSDKTHTCPPCPAPELLGGPSVFLFPPKPKDTLMISRTPEVTCVVVDVSHEDPEVKFNWYVDGVEVHNAKTKPREEQYNSTYRVVSVLTVLHQDWLNGKEYKCKVSNKALPAPIEKTISKAKGQPREPQVCTLPPSRDELTKNQVSLWCLVKGFYPSDIAVEWESNGQPENNYKTTPPVLDSDGSFFLYSKLTVDKSRWQQGNVFSCSVMHEALHNRYTQKSLSLSP | 0.83
GLS3000 L33F one-arm antibody (antibody, human IgG1, kappa, L234A L235A, N297A, name in Kabat numbering) light: DIVMTQSPLSLPVTPGEPASISCRSSQSLVHSNRNTYFHWYQQKPGQAPRLLIYKVSNRFSGVPDRFSGSGSGTDFTLKISRVEAEDVGVYYCGQGTQVPYTFGQGTKLEIKRTVAAPSVFIFPPSDEQLKSGTASVVCLLNNFYPREAKVQWKVDNALQSGNSQESVTEQDSKDSTYSLSSTLTLSKADYEKHKVYACEVTHQGLSSPVTKSFNRGEC heavy: QVQLVESGGGVVQPGRSLRLSCAASGFTFSNAWMHWVRQAPGKGLEWVAQIKAKSNNYATYYAESVKGRFTISRDDSKNSLYLQMNSLKTEDTAVYYCRYVHYGAYYGVDAWGQGTTVTVSSASTKGPSVFPLAPSSKSTSGGTAALGCLVKDYFPEPVTVSWNSGALTSGVHTFPAVLQSSGLYSLSSVVTVPSSSLGTQTYICNVNHKPSNTKVDKKVEPKSCDKTHTCPPCPAPEAAGGPSVFLFPPKPKDTLMISRTPEVTCVVVDVSHEDPEVKFNWYVDGVEVHNAKTKPREEQYASTYRVVSVLTVLHQDWLNGKEYKCKVSNKALPAPIEKTISKAKGQPREPQVYTLPPSRCELTKNQVSLSCAVKGFYPSDIAVEWESNGQPENNYKTTPPVLDSDGSFFLVSKLTVDKSRWQQGNVFSCSVMHEALHNHYTQKSLSLSPDYKDDDDK EPKSSDKTHTCPPCPAPELLGGPSVFLFPPKPKDTLMISRTPEVTCVVVDVSHEDPEVKFNWYVDGVEVHNAKTKPREEQYNSTYRVVSVLTVLHQDWLNGKEYKCKVSNKALPAPIEKTISKAKGQPREPQVCTLPPSRDELTKNQVSLWCLVKGFYPSDIAVEWESNGQPENNYKTTPPVLDSDGSFFLYSKLTVDKSRWQQGNVFSCSVMHEALHNRYTQKSLSLSP | 0.78

Further lines, results first:

ratio of amounts bound (altered form/GLS3000) | Binder
1.05 | GLS3000 L33V one-arm antibody (antibody, human IgG1, kappa, L234A L235A, N297A, name in Kabat numbering) light: DIVMTQSPLSLPVTPGEPASISCRSSQSLVHSNRNTYVHWYQQKPGQAPRLLIYKVSNRFSGVPDRFSGSGSGTDFTLKISRVEAEDVGVYYCGQGTQVPYTFGQGTKLEIKRTVAAPSVFIFPPSDEQLKSGTASVVCLLNNFYPREAKVQWKVDNALQSGNSQESVTEQDSKDSTYSLSSTLTLSKADYEKHKVYACEVTHQGLSSPVTKSFNRGEC heavy: QVQLVESGGGVVQPGRSLRLSCAASGFTFSNAWMHWVRQAPGKGLEWVAQIKAKSNNYATYYAESVKGRFTISRDDSKNSLYLQMNSLKTEDTAVYYCRYVHYGAYYGVDAWGQGTTVTVSSASTKGPSVFPLAPSSKSTSGGTAALGCLVKDYFPEPVTVSWNSGALTSGVHTFPAVLQSSGLYSLSSVVTVPSSSLGTQTYICNVNHKPSNTKVDKKVEPKSCDKTHTCPPCPAPEAAGGPSVFLFPPKPKDTLMISRTPEVTCVVVDVSHEDPEVKFNWYVDGVEVHNAKTKPREEQYASTYRVVSVLTVLHQDWLNGKEYKCKVSNKALPAPIEKTISKAKGQPREPQVYTLPPSRCELTKNQVSLSCAVKGFYPSDIAVEWESNGQPENNYKTTPPVLDSDGSFFLVSKLTVDKSRWQQGNVFSCSVMHEALHNHYTQKSLSLSPDYKDDDDK EPKSSDKTHTCPPCPAPELLGGPSVFLFPPKPKDTLMISRTPEVTCVVVDVSHEDPEVKFNWYVDGVEVHNAKTKPREEQYNSTYRVVSVLTVLHQDWLNGKEYKCKVSNKALPAPIEKTISKAKGQPREPQVCTLPPSRDELTKNQVSLWCLVKGFYPSDIAVEWESNGQPENNYKTTPPVLDSDGSFFLYSKLTVDKSRWQQGNVFSCSVMHEALHNRYTQKSLSLSP
0.3 | GLS3000 L33P one-arm antibody (antibody, human IgG1, kappa, L234A L235A, N297A, name in Kabat numbering) light: DIVMTQSPLSLPVTPGEPASISCRSSQSLVHSNRNTYPHWYQQKPGQAPRLLIYKVSNRFSGVPDRFSGSGSGTDFTLKISRVEAEDVGVYYCGQGTQVPYTFGQGTKLEIKRTVAAPSVFIFPPSDEQLKSGTASVVCLLNNFYPREAKVQWKVDNALQSGNSQESVTEQDSKDSTYSLSSTLTLSKADYEKHKVYACEVTHQGLSSPVTKSFNRGEC heavy: QVQLVESGGGVVQPGRSLRLSCAASGFTFSNAWMHWVRQAPGKGLEWVAQIKAKSNNYATYYAESVKGRFTISRDDSKNSLYLQMNSLKTEDTAVYYCRYVHYGAYYGVDAWGQGTTVTVSSASTKGPSVFPLAPSSKSTSGGTAALGCLVKDYFPEPVTVSWNSGALTSGVHTFPAVLQSSGLYSLSSVVTVPSSSLGTQTYICNVNHKPSNTKVDKKVEPKSCDKTHTCPPCPAPEAAGGPSVFLFPPKPKDTLMISRTPEVTCVVVDVSHEDPEVKFNWYVDGVEVHNAKTKPREEQYASTYRVVSVLTVLHQDWLNGKEYKCKVSNKALPAPIEKTISKAKGQPREPQVYTLPPSRCELTKNQVSLSCAVKGFYPSDIAVEWESNGQPENNYKTTPPVLDSDGSFFLVSKLTVDKSRWQQGNVFSCSVMHEALHNHYTQKSLSLSPDYKDDDDK EPKSSDKTHTCPPCPAPELLGGPSVFLFPPKPKDTLMISRTPEVTCVVVDVSHEDPEVKFNWYVDGVEVHNAKTKPREEQYNSTYRVVSVLTVLHQDWLNGKEYKCKVSNKALPAPIEKTISKAKGQPREPQVCTLPPSRDELTKNQVSLWCLVKGFYPSDIAVEWESNGQPENNYKTTPPVLDSDGSFFLYSKLTVDKSRWQQGNVFSCSVMHEALHNRYTQKSLSLSP

From patent US20240270846A1 (published 2024)
